Reference: the Immune Epitope Database (IEDB)
Each block holds one sequence with its values, some of them ahead of it.

What was measured:
HLA-B*07:02 = experiment: IEDB peptide-MHC binding, purified MHC/competitive/radioactivity; filed as Kd, often an IC50 or EC50 that approximates it; ≥ and ≤ were set here for values at or beyond the usual limits of such assays
HLA-B*08:01 = experiment: as above
HLA-B*46:01 [1] = experiment: IEDB peptide-MHC binding, purified MHC/direct/fluorescence; filed as Kd, often an IC50 or EC50 that approximates it; ≥ and ≤ were set here for values at or beyond the usual limits of such assays; conditions: source organism: West Nile virus
HLA-A*02:01 = experiment: IEDB peptide-MHC binding, purified MHC/competitive/fluorescence; filed as Kd, often an IC50 or EC50 that approximates it; ≥ and ≤ were set here for values at or beyond the usual limits of such assays; conditions: source organism: Escherichia coli 536
HLA-B*51:01 = experiment: as above
HLA-B*15:01 = experiment: as above
HLA-A*32:01 = experiment: IEDB peptide-MHC binding, purified MHC/competitive/radioactivity; filed as Kd, often an IC50 or EC50 that approximates it; ≥ and ≤ were set here for values at or beyond the usual limits of such assays
HLA-B*44:03 = experiment: as above
HLA-B*44:02 = experiment: as above
HLA-B*40:01 = experiment: as above
HLA-A*30:02 = experiment: as above
HLA-A*01:01 = experiment: as above
HLA-A*29:02 = experiment: as above
HLA-A*30:01 = experiment: as above
HLA-A*26:01 [2] = experiment: as above
HLA-B*57:01 = experiment: IEDB peptide-MHC binding, purified MHC/competitive/fluorescence; filed as Kd, often an IC50 or EC50 that approximates it; ≥ and ≤ were set here for values at or beyond the usual limits of such assays; conditions: source organism: Homo sapiens
HLA-B*46:01 [3] = experiment: as above; conditions: source organism: Homo sapiens
HLA-B*27:03 = experiment: as above; conditions: source organism: Homo sapiens
HLA-A*69:01 = experiment: as above; conditions: source organism: Homo sapiens
HLA-A*26:01 [4] = experiment: as above; conditions: source organism: Homo sapiens
HLA-B*27:05 = experiment: IEDB peptide-MHC binding, purified MHC/direct/fluorescence; filed as Kd, often an IC50 or EC50 that approximates it; ≥ and ≤ were set here for values at or beyond the usual limits of such assays; conditions: source organism: Mammarenavirus juninense
HLA-A*24:02 = experiment: IEDB peptide-MHC binding, purified MHC/competitive/radioactivity; filed as Kd, often an IC50 or EC50 that approximates it; ≥ and ≤ were set here for values at or beyond the usual limits of such assays
HLA-A*23:01 = experiment: as above
[5] = source organism: Dengue virus 2 Jamaica/1409/1983
[6] = source organism: Dengue virus 1 Brazil/97-11/1997
[7] = source organism: Vaccinia virus WR
[8] = source organism: Escherichia coli 536
[9] = source organism: Dengue virus 3 Martinique/1243/1999
[10] = source organism: Dengue virus 1 Singapore/S275/1990
[11] = source organism: Dengue virus 4 Philippines/H241/1956
[12] = source organism: Mammarenavirus whitewaterense
[13] = source organism: Mammarenavirus choriomeningitidis
[14] = source organism: Mammarenavirus brazilense
[15] = source organism: SARS coronavirus Tor2
[16] = source organism: Mammarenavirus machupoense

Sequence: LAAVSVSPL
- Kd (HLA-B*07:02; [5]): 125 nM

Sequence: NRRKRSVTM
- Kd (HLA-B*08:01; [6]): 6.72 nM

Sequence: AIKLGFKSL
- Kd (HLA-B*08:01; [7]): 41.3 nM

Sequence: GVIMPNGSY
- Kd (HLA-B*46:01 [1]): 1990 nM

- Kd (HLA-A*02:01): 692 nM
- Kd (HLA-B*51:01; [8]): ≥ 20000 nM
- Kd (HLA-B*15:01; [8]): ≥ 20000 nM
Sequence: FSSQALVLI

Sequence: SMFTLRHII
- Kd (HLA-B*08:01; [7]): 1.81 nM
- Kd (HLA-A*32:01; [7]): 82.8 nM

Sequence: LGKKKTPRM
- Kd (HLA-B*08:01; [5]): 378 nM

Sequence: NEMGLLETTK
- Kd (HLA-B*44:03; [6]): ≥ 20700 nM
- Kd (HLA-B*44:02; [6]): 1690 nM

Sequence: VEMGEAAGIF
- Kd (HLA-B*40:01; [5]): 1150 nM
- Kd (HLA-B*44:03; [5]): 592 nM
- Kd (HLA-B*44:02; [5]): 39.2 nM

Sequence: SKKTRISDL
- Kd (HLA-B*08:01; source organism: Cowpox virus): 2.76 nM

Sequence: EVKTCIWPKS
- Kd (HLA-A*32:01; [6]): ≥ 49500 nM

Sequence: LPVCAPSSA
- Kd (HLA-B*07:02; source organism: Hepatitis B virus): 115 nM

Sequence: SLLRKFLYC
- Kd (HLA-B*08:01; [7]): 701 nM

Sequence: KTWGKAKIV
- Kd (HLA-A*32:01; [9]): 1260 nM

Sequence: SEGIFSPSEL
- Kd (HLA-B*40:01; [10]): 5.6 nM
- Kd (HLA-B*44:03; [10]): 77.5 nM
- Kd (HLA-B*44:02; [10]): 66.3 nM

Sequence: LETLLLLTLL
- Kd (HLA-B*40:01; [5]): 101 nM

Sequence: GEMCEDTVTY
- Kd (HLA-B*40:01; [11]): 918 nM
- Kd (HLA-B*44:03; [11]): 104 nM
- Kd (HLA-B*44:02; [11]): 35.4 nM

Sequence: ATTNAHCALL
- Kd (HLA-A*30:02; [12]): 6040 nM
- Kd (HLA-A*01:01; [12]): 7670 nM
- Kd (HLA-A*29:02; [12]): ≥ 71400 nM
- Kd (HLA-A*30:01; [12]): 2350 nM
- Kd (HLA-A*32:01; [12]): ≥ 69900 nM
- Kd (HLA-A*26:01 [2]; [12]): ≥ 69700 nM

Sequence: TTDVKAAVI
- Kd (HLA-A*30:02; [13]): ≥ 23700 nM
- Kd (HLA-A*01:01; [13]): 955 nM
- Kd (HLA-A*29:02; [13]): 10400 nM
- Kd (HLA-A*30:01; [13]): ≥ 72200 nM
- Kd (HLA-A*32:01; [13]): ≥ 77800 nM
- Kd (HLA-A*26:01 [2]; [13]): ≥ 77900 nM

Sequence: KLFNIAQRI
- Kd (HLA-A*32:01; [7]): 1.58 nM

- Kd (HLA-B*57:01): ≥ 20000 nM
- Kd (HLA-B*46:01 [3]): ≥ 20000 nM
- Kd (HLA-B*51:01; source organism: Homo sapiens): ≥ 20000 nM
- Kd (HLA-B*27:03): ≥ 20000 nM
- Kd (HLA-A*69:01): ≥ 20000 nM
- Kd (HLA-A*26:01 [4]): ≥ 20000 nM
Sequence: KMFTYLMES

Sequence: AIAVASGLLW
- Kd (HLA-B*44:03; [11]): 908 nM
- Kd (HLA-B*44:02; [11]): 8800 nM

Sequence: WELVDKERNL
- Kd (HLA-B*40:01; source organism: Dengue virus 2 Peru/IQT2913/1996): 222 nM

Sequence: LLSEMLNKEY
- Kd (HLA-A*30:02; [14]): 701 nM
- Kd (HLA-A*01:01; [14]): 446 nM
- Kd (HLA-A*29:02; [14]): 511 nM
- Kd (HLA-A*30:01; [14]): 10900 nM
- Kd (HLA-A*32:01; [14]): ≥ 38600 nM
- Kd (HLA-A*26:01 [2]; [14]): 15800 nM

Sequence: TTWALCESI
- Kd (HLA-A*32:01; [6]): 293 nM

Sequence: PNERRAWNFL
- Kd (HLA-A*32:01; [11]): ≥ 25300 nM

Sequence: RRGLSQFTQ
- Kd (HLA-B*27:05): ≥ 20000 nM

Sequence: EEHNSTWHY
- Kd (HLA-B*44:03; [9]): 68.1 nM
- Kd (HLA-B*44:02; [9]): 15.3 nM

Sequence: AMQKESDDY
- Kd (HLA-A*30:02; [15]): 126 nM
- Kd (HLA-A*01:01; [15]): 2740 nM
- Kd (HLA-A*24:02; [15]): ≥ 77600 nM
- Kd (HLA-A*23:01; [15]): ≥ 77800 nM
- Kd (HLA-A*29:02; [15]): 15500 nM
- Kd (HLA-A*26:01 [2]; [15]): ≥ 65300 nM

Sequence: SAVPVDWVPT
- Kd (HLA-A*32:01; [6]): 18600 nM

Sequence: QEEHKETWHY
- Kd (HLA-B*44:03; [11]): 422 nM
- Kd (HLA-B*44:02; [11]): 685 nM

Sequence: VGIPTHRHL
- Kd (HLA-A*30:02; [16]): 14300 nM
- Kd (HLA-A*01:01; [16]): ≥ 69400 nM
- Kd (HLA-A*24:02; [16]): ≥ 40300 nM
- Kd (HLA-A*23:01; [16]): 14000 nM
- Kd (HLA-A*29:02; [16]): ≥ 78900 nM
- Kd (HLA-A*26:01 [2]; [16]): ≥ 77900 nM

Sequence: DTSNPKTPKY
- Kd (HLA-A*30:02; [15]): 48.9 nM
- Kd (HLA-A*01:01; [15]): 194 nM
- Kd (HLA-A*24:02; [15]): ≥ 70300 nM
- Kd (HLA-A*23:01; [15]): ≥ 70000 nM
- Kd (HLA-A*29:02; [15]): 367 nM
- Kd (HLA-A*26:01 [2]; [15]): 1260 nM

Sequence: FSQEEAKLF
- Kd (HLA-B*15:01; source organism: Yersinia pestis Antiqua): 2480 nM

Sequence: YLRTKPASA
- Kd (HLA-B*08:01; [7]): 1.48 nM

Sequence: EENVEVEIW
- Kd (HLA-B*44:03; [5]): 39.1 nM
- Kd (HLA-B*44:02; [5]): 45.1 nM
